Experimental findings from patent publication US20060084798, “cDNAs and proteins involved in hypoxia, circadian and orphan signal transduction pathways, and methods of use” (published 2006) are described below.

Where two headings read alike, the source gives them in different places.

Data set [1] concerns the target MOP2 (HIF2alpha)/ARNT heterodimer (Homo sapiens, UniProt Q99814;P27540 Q99814:1-870,P27540:1-789). In words: EMSA; approximately equal to MOP1-ARNT; supershifted by antisera. To be noted: label: 32P. In general terms: In EMSA bound probe runs differently from free probe, usually more slowly.
Another data set concerns the target ARNT (Homo sapiens, UniProt P27540 P27540:1-789). In words: EMSA; ARNT alone. The following applies: label: 32P.
The target of a further data set is MOP1 (HIF1alpha)/AHR (UniProt Q16665;P35869 Q16665:1-826,P35869:1-848). Description: EMSA; no complex with any bHLH-PAS family response element.
Data set [2] concerns the target T1, MOP1 (HIF1alpha) (Homo sapiens, UniProt Q16665 SEQ:1-826). Description: EMSA; MOP1 alone. To be noted: label: 32P.
For data set [3], the target named is T2, MOP1 (HIF1alpha)/ARNT heterodimer (Homo sapiens, UniProt Q16665;P27540 Q16665:1-826,P27540:1-789). In words: EMSA; oligo assignment by core; supershifted by antisera. The following applies: label: 32P.
Data set [4] addresses MOP7 (HIF3alpha)/human ARNT heterodimer (Mus musculus, UniProt Q0VBL6;P27540 Q0VBL6:1-662,P27540:1-789). Description: EMSA; abolished by anti-ARNT. To be noted: label: 32P. How it is done: Gel-shift assay. To generate a double strand oligonucleotide probe containing the core HRE element, 50 ng of oligonucleotide OL414 was end-labeled with [γ-³²P]ATP and was annealed with 10 fold excess of cold complementary oligonucleotide OL415. […] For expression of the bHLH-PAS proteins, mMOP7 (PL1025) and hARNT (PL87) were synthesized in a reticulocyte lysate in the presence of [³⁵S]methionine. The amount of each protein synthesized was calculated by measuring radioactivity and estimated to be approximately 1 fmol in each 10 μl gel-shift reaction. Each gel-shift assay was performed with 100,000 cpm of oligonucleotide probe per 10 μl reaction. To confirm complex identity, 1 μl of anti-ARNT sera was used to supershift the DNA bound protein complex.
As a biochemical proof that MOP7 was a bona fide α-class HIF, we performed gel-shift and transient transfection analyses. Because HIF1α and HIF2α are known to pair with the β-class HIF subunit ARNT, we predicted that MOP7 would also pair with ARNT. Based upon sequence identity in their basic regions, we also predicted that a MOP7-ARNT would bind the HRE core sequence, TACGTG. […] First, the MOP7-ARNT-HRE complex was abolished by anti-ARNT IgGs but not by preimmune antibodies. Second, the complex was blocked by an excess of HRE containing oligonucleotide but not by oligonucleotides with a single mutation within the core HRE sequence. […]

Data set [5] concerns the target T1, MOP1 (HIF1alpha). Description: EMSA; HIF1alpha alone.
Data set [6] concerns the target T2, MOP1 (HIF1alpha)/ARNT heterodimer. Description: EMSA; higher affinity than MOP1 or ARNT alone.
Data set [7] has the same target. In words: EMSA.
In data set [8] the target is ARNT/HIF1alpha (transfected) (Homo sapiens, UniProt P27540;Q16665 P27540:1-789,Q16665:1-826). Description: cell_activity; COS-1 luciferase. How it is done: (§1) Cell Culture and Transient Transfection. Transient transfections of COS-1 cells were performed by the Lipofectamine protocol (GIBCO) as described in Example 1. To mimic hypoxia, 100 μM of cobalt chloride was included in the cell growth media and incubated at 37° C. until harvest. To monitor the transcriptional activity of the MOP3-MOP4 or MOP3-CLOCK heterodimers, a synthetic reporter was constructed by annealing phosphorylated oligonucleotides OL1116 and OL1117 and cloning them into the BglII site in the reporter plasmid pGL3p (Promega). To measure the transcriptional activity of the MOP3-HIF1α or MOP3-HIF2α heterodimers, a synthetic reporter was constructed by annealing phosphorylated oligonucleotides OL1155 and OL1156 and then cloning them as above. Luciferase levels were reported in relation to β-galactosidase activity as described in Example 1.
(§2) To determine if MOP3 formed a transcriptionally active complex with either HIF1α or HIF2α in vivo, we constructed a synthetic reporter using six copies of the M13 element described above. […] Like ARNT, upon exposure of these transfected cells to cobalt chloride to simulate cellular hypoxia, MOP3 interacted and drove transcription in complexes with both HIF1α and with HIF2α.

Data set [9] concerns the target ARNT/HIF2alpha (transfected) (Homo sapiens, UniProt P27540;Q99814 P27540:1-789,Q99814:1-870). In words: cell_activity; COS-1 luciferase. How it is done: as §1, §2

T2 sequence (Q16665 whole entry, chain 1 of 2): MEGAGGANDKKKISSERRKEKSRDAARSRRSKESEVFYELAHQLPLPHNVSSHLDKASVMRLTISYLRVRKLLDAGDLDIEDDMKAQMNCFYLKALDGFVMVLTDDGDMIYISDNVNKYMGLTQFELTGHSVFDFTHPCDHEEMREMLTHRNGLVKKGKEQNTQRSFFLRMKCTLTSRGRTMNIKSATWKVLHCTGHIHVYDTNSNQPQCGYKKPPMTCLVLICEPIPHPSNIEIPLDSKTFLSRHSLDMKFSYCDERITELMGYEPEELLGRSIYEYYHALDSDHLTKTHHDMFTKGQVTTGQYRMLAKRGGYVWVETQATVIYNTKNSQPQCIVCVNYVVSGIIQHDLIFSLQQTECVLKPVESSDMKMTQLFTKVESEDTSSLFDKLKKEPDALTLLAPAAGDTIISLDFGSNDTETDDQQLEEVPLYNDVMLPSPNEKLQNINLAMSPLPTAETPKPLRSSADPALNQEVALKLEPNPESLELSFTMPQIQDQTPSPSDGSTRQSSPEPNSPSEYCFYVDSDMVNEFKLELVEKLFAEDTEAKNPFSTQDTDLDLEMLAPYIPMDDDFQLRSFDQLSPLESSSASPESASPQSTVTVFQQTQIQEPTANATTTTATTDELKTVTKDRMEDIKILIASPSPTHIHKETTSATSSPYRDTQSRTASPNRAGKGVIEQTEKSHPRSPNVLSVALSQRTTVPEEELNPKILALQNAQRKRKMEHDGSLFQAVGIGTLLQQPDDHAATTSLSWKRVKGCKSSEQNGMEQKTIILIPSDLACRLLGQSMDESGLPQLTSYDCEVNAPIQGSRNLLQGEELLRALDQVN
T2 sequence (P27540 whole entry, chain 2 of 2): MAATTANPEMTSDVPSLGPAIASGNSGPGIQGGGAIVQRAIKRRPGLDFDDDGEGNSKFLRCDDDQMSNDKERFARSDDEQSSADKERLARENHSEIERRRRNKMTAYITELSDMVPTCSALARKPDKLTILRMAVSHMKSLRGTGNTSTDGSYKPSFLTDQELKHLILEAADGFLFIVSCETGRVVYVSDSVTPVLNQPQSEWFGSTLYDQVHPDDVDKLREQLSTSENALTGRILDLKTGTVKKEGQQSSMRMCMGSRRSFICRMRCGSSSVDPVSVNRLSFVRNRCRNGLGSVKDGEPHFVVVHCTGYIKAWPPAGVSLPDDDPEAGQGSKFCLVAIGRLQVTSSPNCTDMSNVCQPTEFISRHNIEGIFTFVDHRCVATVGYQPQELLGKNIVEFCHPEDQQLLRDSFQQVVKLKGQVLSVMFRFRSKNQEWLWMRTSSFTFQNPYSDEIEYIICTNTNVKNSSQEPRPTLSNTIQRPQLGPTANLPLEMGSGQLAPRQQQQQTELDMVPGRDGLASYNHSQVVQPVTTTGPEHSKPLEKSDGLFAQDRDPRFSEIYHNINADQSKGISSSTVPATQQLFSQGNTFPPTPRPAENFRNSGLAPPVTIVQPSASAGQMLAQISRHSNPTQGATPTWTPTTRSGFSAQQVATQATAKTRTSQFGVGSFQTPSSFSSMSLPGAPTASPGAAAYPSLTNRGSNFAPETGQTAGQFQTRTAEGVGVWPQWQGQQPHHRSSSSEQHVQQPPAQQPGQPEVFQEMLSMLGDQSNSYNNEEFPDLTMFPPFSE
MOP1 (HIF1alpha)/AHR, sequence (Q16665 whole entry, chain 1 of 2): as the sequence (Q16665 whole entry, chain 1 of 2) above
MOP1 (HIF1alpha)/AHR, sequence (P35869 whole entry, chain 2 of 2): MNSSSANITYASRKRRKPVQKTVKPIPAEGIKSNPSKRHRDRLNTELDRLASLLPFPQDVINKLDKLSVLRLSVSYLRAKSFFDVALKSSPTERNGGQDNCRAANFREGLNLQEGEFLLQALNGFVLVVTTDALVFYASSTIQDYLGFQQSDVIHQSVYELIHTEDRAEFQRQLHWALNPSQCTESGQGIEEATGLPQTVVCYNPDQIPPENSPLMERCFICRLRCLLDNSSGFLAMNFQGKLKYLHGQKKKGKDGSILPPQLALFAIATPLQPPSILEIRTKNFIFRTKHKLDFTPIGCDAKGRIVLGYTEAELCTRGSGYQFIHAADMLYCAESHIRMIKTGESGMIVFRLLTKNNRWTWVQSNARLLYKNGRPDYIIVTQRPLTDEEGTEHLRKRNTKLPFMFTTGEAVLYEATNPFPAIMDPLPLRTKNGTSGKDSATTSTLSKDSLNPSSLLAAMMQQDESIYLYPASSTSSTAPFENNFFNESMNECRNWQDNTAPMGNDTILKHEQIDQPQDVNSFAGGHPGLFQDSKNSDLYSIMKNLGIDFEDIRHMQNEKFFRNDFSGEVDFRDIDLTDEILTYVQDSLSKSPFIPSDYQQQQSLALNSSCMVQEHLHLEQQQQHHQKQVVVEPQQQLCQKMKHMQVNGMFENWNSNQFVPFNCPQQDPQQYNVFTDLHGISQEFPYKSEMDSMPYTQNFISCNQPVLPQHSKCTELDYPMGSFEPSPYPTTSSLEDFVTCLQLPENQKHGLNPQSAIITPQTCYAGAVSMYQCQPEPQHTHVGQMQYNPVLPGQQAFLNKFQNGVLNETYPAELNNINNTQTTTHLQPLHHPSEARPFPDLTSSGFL
T1 sequence (Q16665 whole entry): as the sequence (Q16665 whole entry, chain 1 of 2) above
ARNT, sequence (P27540 whole entry, one chain of several): as the sequence (P27540 whole entry, chain 2 of 2) above

B1: OL414/OL415 TACGTG (HRE) (dsDNA)
DNA 1: TCGAGCTGGGCAGGGTACGTGGCAAGGC
DNA 2: TCGAGCCTTGCCACGTACCCTGCCCAGC
For the molecule B1, the binding result in data set [1] was “binds”; with ARNT, “no binding”; with MOP1 (HIF1alpha)/AHR (label: 32P) it was “no binding”; with MOP1 (HIF1alpha) [2], “no binding”; in [3], “binds”; in data set [4], “binds”.

B2: M13 element (dsDNA)
DNA 1: GCCCTACGTGACCC
DNA 2: GGGTCACGTAGGGC
Take B2: the binding result in the data set with MOP1 (HIF1alpha) [5] is listed as “no binding”.

B3: OL445/OL446 CACGTG E-box (dsDNA)
DNA 1: TCGAGCTGGGCAGGTCACGTGGCAAGGC
DNA 2: TCGAGCCTTGCCACGTGACCTGCCCAGC
With B3, the binding result was “binds” in data set [6] and “no binding” in the data set with MOP1 (HIF1alpha)/AHR.

B4: OL443/OL444 GTGCGTG (SAE) (dsDNA)
DNA 1: TCGAGCTGGGCAGGGTGCGTGGCAAGGC
DNA 2: TCGAGCCTTGCCACGCACCCTGCCCAGC
On to B4, for which the binding result (with MOP1 (HIF1alpha)/AHR; in data set [7]) was “no binding” each time.

B5: OL447/OL448 TTGCGTG (DRE) (dsDNA)
DNA 1: TCGAGCTGGGCAGGTTGCGTGGCAAGGC
DNA 2: TCGAGCCTTGCCACGCAACCTGCCCAGC
As for B5, the binding result (in the data set with MOP1 (HIF1alpha)/AHR; in data set [7]) was “no binding” in each case.

B6: M13 reporter insert OL1155 (reporter carries six M13 copies) (dsDNA)
DNA 1: GATCGGATACGTGACCATTGGTTACGTGTCCATTGGATACGTGACC
DNA 2: GGTCACGTATCCAATGGACACGTAACCAATGGTCACGTATCCGATC
Turning to B6, the activity in data set [8] was found to be 14.1 fold; in data set [9], 8.1 fold.
